Consider one molecule from patent publication US20240239894A1, “THERAPEUTIC BINDING MOLECULES” (MedImmune Limited, priority 2020, published 2024).

This experiment has as its system MDA-MB-468 cells. The experiment can be described thus: Flow cytometry binding. The format is cell-based, human. The conditions noted are these: endogenously-expressed B7-H4. The source says: Flow cytometry was used to measure binding of antibody E02-INT and E02-GL-SG3932 to the human breast cancer cell lines MX-1 and MDA-MB-468, and to engineered HT29 colon cancer cells stably expressing human B7-H4.

B1: E02-GL: germlined ZY0EQD-E02, VH SEQ ID NO: 45, VL SEQ ID NO: 34; antibody intermediate of E02-GL-SG3932 (antibody, V domains shown)
VH: QVQLQQWGAGLLKPSETLSLACTVYGGSFSGYYWNWIRQPPGKGLEWIGEINHSGSTSYNPSLKSRVTISVDTSKNQFSLKLSSVTAADTAVYYCARVLYNWNVDSWGQGTLVTVSS
VL: DIQMTQSPSSLSASVGDRVTITCRASQDIRNDVGWYQQKPGKAPKRLIYAASRLQSGVPSRFSGSGSGTEFTLTISSLQPEDFATYYCLQHNSYPRTFGQGTKVEIK
Take B1: the cellular binding entry is on record as “bound”.
